The text below walks through data of PMC8624160.

As usually defined, the Kd is the equilibrium constant for the complex coming apart.

In this series the target is thrombin (UniProt P00734;P00734 328-363;364-622). The series can be described thus: fluorescence attenuation kinetics (kapp); Binding buffer, salt, pH and temperature not given in the material (PBS listed among reagents); ex/em 333/426 nm, constant SITS-aptamer, thrombin titrated, trip.
For the molecule AGTCCGTGGTAGGGCAGGTTGGGGTGACT (structured_DNA, 5' NH2-(CH2)6 linker coupled to SITS) [SITS-Thrombin29 5'], the Kd came out at 851 nM.
Consider GGTTGGTGTGGTTGG (structured_DNA, 5' NH2-(CH2)6 linker coupled to SITS) [SITS-Thrombin15 5'], for which the Kd stood at 10800 nM.
For AGTCCGTGGTAGGGCAGGTTGGGGTGACT (structured_DNA, 3' (CH2)6-NH2 linker coupled to SITS) [SITS-Thrombin29 3'], the Kd turned out to be 180 nM.
For the molecule GGTTGGTGTGGTTGG (structured_DNA, 3' (CH2)6-NH2 linker coupled to SITS) [SITS-Thrombin15 3'], the Kd was 4980 nM.
As for GTCCGTGGTAGGGCAGGTTGGGGTGAC (structured_DNA, 3' (CH2)6-NH2 linker coupled to SITS) [SITS-Thrombin27 3'], the Kd turned out to be 437 nM.
As for GTCCGTGGTAGGGCAGGTTGGGGTGAC (structured_DNA, 5' NH2-(CH2)6 linker coupled to SITS) [SITS-Thrombin27 5'], the dissociation constant (Kd) worked out at 1590 nM.
